Laboratory results published in article PMC4204856, “Application of a Novel Alkali-Tolerant Thermostable DyP-Type Peroxidase from Saccharomonospora viridis DSM 43017 in Biobleaching of Eucalyptus Kraft Pulp” (PLoS ONE, 2014).

Assays:
purified protein [1] = substrate: CCN(CC)c1ccc(C(=C2C=CC(=[N+](CC)CC)C=C2)c2ccccc2)cc1; test: purified protein; type: biochemical, Saccharomonospora viridis; conditions: H2O2 co-substrate (0.1 mM in all tests), 50 mM phosphate pH 7.0, standard assay 60°C, temperature of kinetics not stated
purified protein [2] = substrate: Nc1c(S(=O)(=O)O)cc(Nc2cccc(S(=O)(=O)CCOS(=O)(=O)O)c2)c2c1C(=O)c1ccccc1C2=O; test: purified protein; type: biochemical, Saccharomonospora viridis; conditions: H2O2 co-substrate (0.1 mM in all tests), 50 mM phosphate pH 7.0, standard assay 60°C, temperature of kinetics not stated

B1: SviDyP (Saccharomonospora viridis) (protein)
chain: MKGRRFGRRAFLATGAAALGGAAALGGRELFTGDGGADGRDRPDRGDIGRATVDFHGERQAGVATPAQAFATFVAFDLLDGVDREALIRWMRVWTDDIERLTRGAPALTDTEPELALLPARLTVTVGFGPGFLAAAGREELRPSWLAPLPEFPIDRLREEFSGGDLVAQVCADDEVTVAHAVRVLTKQARSFARPRWVQRGFRNTPGAVPEGATMRNLMGQLDGTRNLRPGPDDRLIWISDGPEWLRGGTGMVVRRIAMNLDTWDELDRPARELVIGRRLDNGAPLTGRHEHDEPDLEAVDERGLSVIPMFAHIRRARSDNPDERFLRRSYNYDDPPEPGELSNSGLVFVTFQADIEAQFTPIQRRLAELDSLNDWTTPIGSAVFAVPRGCRPGEYLGQPLLEA
notes: Ni-NTA and Sephadex G-75; tag removal not mentioned; ~45 kDa on SDS-PAGE
Protein B1 has a Km (purified protein [1]) of 58.87 ± 4.7 µM and a Km (purified protein [2]) of 210.2 ± 16.5 µM.
